Residue numbers refer to the chain shown, from its start.
T1: FGFR1, biotinylated (UniProt P11362 22-822, biotin (sulfo-NHS-biotin))
T1 chain: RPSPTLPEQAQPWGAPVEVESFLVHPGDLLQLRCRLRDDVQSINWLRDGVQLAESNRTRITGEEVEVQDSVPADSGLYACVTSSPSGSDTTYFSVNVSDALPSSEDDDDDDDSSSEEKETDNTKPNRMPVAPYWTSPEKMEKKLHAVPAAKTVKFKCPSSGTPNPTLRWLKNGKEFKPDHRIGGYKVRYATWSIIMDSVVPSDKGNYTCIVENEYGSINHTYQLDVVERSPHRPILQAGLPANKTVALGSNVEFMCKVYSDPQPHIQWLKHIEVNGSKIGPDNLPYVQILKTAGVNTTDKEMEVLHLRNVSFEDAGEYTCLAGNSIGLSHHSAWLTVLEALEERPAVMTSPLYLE

B1: SDC1_(45,47HEP): murine syndecan-1 ectodomain with heparin conjugated at residues 45 and 47 (domain or fragment)
chain: QIVAVNVPPEDQDGSGDDSDNFYGYGTGALPDTLSRQTPSTWKDVWLLTATPTAPEPTSSNTETAFTSVLPAGEKPEEGEPVLHVEAEPGFTARDKEKEVTTRPRETVQLPITQRASTVRVTTAQAAVTSHPHGGMQPGLHETSAPTAPGQPDHQPPRVEGGGTSVIKEVVEDGTANQLPAGEGSGEQDFTFETSGENTAVAAVEPGLRNQPPVDEGATGASQSLLDRKEVLG
modifications: p-propargyltyrosine (pPY) at 45 and 47, each joined by CuAAC to azido-heparin (azHEP)
B2: SDC1_(37,45,47HEP): murine syndecan-1 ectodomain with heparin conjugated at residues 37, 45 and 47 (domain or fragment)
chain: B1 chain with S15Y
modifications: p-propargyltyrosine (pPY) at 37, 45 and 47, each joined by CuAAC to azido-heparin (azHEP)
B3: mSDC1: commercial glycosylated, mammalian expressed recombinant mouse SDC1 ectodomain (domain or fragment, UniProt P18828 23-255, looked up)
chain: B1 chain with Y23S, Y25S
modifications: native GAG chains from the mammalian host (CS predominant over HS by the paper's disaccharide analysis)

Key:
Experiment in all cases: AlphaScreen or HTRF
FGFR1, biotinylated [1] = target: T1, FGFR1, biotinylated
[2] = target: Vitronectin (VN), biotinylated (UniProt P04004 20-478, biotin (sulfo-NHS-biotin))
Sequence of Vitronectin (VN), biotinylated (P04004 20-478): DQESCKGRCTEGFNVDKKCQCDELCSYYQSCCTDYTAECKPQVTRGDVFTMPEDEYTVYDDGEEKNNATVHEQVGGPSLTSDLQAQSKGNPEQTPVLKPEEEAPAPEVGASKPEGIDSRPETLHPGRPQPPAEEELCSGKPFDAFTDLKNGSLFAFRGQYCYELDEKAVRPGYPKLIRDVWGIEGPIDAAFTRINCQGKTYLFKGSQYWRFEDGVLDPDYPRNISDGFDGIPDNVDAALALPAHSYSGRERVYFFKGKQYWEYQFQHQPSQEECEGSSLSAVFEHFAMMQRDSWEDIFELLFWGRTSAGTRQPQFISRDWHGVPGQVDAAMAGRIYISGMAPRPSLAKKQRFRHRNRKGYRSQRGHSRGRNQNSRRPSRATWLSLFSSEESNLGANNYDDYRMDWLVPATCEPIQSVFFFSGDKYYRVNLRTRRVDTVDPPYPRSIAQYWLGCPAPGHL

FGFR1, biotinylated [3] = target: T1, FGFR1, biotinylated
[4] = target: Recombinant human FGF2 (fibroblast growth factor-2), biotinylated (human, biotin (sulfo-NHS-biotin))

Binder | EC50 of ternary complex formation with soluble non-tagged FGF2 (FGFR1, biotinylated [1]) | EC50 [2] | EC50 (FGFR1, biotinylated [3]) | EC50 [4]
B1 | 0.004 nM | 0.8 nM | 0.4 nM | 0.3 nM
B2 | 0.008 nM | 0.5 nM | 0.3 nM | 0.3 nM
B3 | 4 nM | > 100 nM | > 20 nM | 
